{"source": "patent US20240093191A1", "about": "“COMPOSITIONS AND METHODS FOR TREATING DISEASE ASSOCIATED WITH DUX4 OVEREXPRESSION” (RESEARCH INSTITUTE AT NATIONWIDE CHILDREN'S HOSPITAL, priority 2021, published 2024)", "molecules": {"B1": {"name": "U6.mir-675: U6 promoter-driven mir-675 expression plasmid with 40 nt 5' and 47 nt 3' flanking sequences (nucleic acid)", "DNA": "GACGCCGCCATCTCTAGGCCCGCGCCGGCCCCCTCGCACAGACTTGTGGGAGAAGCTCGGCTACTCCCCTGCCCCGGTTAATTTGCATATAATATTTCCTAGTAACTATAGAGGCTTAATGTGCGATAAAAGACAGATAATCTGTTCTTTTTAATACTAGCTACATTTTACATGATAGGCTTGGATTTCTATAAGAGATACAAATACTAAATTATTATTTTAAAAAACAGCACAAAAGGAAACTCACCCTAACTGTAAAGTAATTGTGTGTTTTGAGACTATAAATATCCCTTGGAGAAAAGCCTTGTTTGCGTTTAGTGAACCGTCAGATGGTACCGTTTAAACTCGAGCCCAGGGTCTGGTGCGGAGAGGGCCCACAGTGGACTTGGTGACGCTGTATGCCCTCACCGCTCAGCCCCTGGGACTAGAGCGGCCGCCACAGCGGGGAGATCCAGACATGATAAGATACATTTTTT"}}, "key": {"[1]": {"system": "DUX4-FL (DUX4 ORF + 3'UTR, RenLuc-DUX4-FL)", "assay": "Dual-luciferase assay, RenLuc-DUX4-FL reporter co-transfected with miRNA plasmids in HEK293 cells", "format": "cell-based, human", "source_text": "FIG. 1A. Dual-luciferase assay to test the ability of U6.mir-675 to target DUX4. Shown here is the mir-675 expression plasmid used in this study. In this construct, the RNA polymerase III U6 promoter (U6p) controls the expression of mir-675. A terminal signal formed of a stretch of six T nucleotides allows the termination of transcription. On the right, the secondary structure of the mir-675 along with its 5′ and 3′ end flanking sequences (Boxed) is shown. At the 5′ end, the flanking sequence is of 40 nucleotides long and at the 3′ end, the flanking sequence is of 47 nucleotides long starting from the nucleotide at position 114. U6.mir-675 was tested to target DUX4 using the dual-luciferase assay. To do this, DUX4 was cloned in the RenLuc-DUX4-FL expression plasmid (FIG. 1A), i.e., DUX4-FL (DUX4 ORF without V5 tag+3′UTR) was PCR amplified using CMV.DUX4-FLΔV5 as template with the following primers: forward: 5′ […] 3′ (SEQ ID NO: 125), reverse: 5′ […] 3′ (SEQ ID NO: 126). The PCR product was then cloned into a previously designed RenLuc SD5 mutant plasmid using XhoI/SpeI restriction sites and the RenLuc.SD5 mutant-DUX4 3′UTR plasmid backbone. The Renilla luciferase gene has a splicing donor mutation (*SID5) that prevents the alternative splicing of the DUX4-FL mRNA (Ansseau et al. (2015) PLoS One, 10, e0118813). The dual-luciferase assay was performed by co-transfecting the RenLuc-DUX4-FL and U6.mir-675 expression plasmids into the human embryonic kidney HEK293 cells. 48 hours after transfection, both the Renilla and Firefly luciferase activities were measured. The latter was used to normalize for Renilla luciferase activity. The non-targeting RenLuc control backbone plasmid (RenLuc) was co-transfected with U6.mir-675 and the RenLuc-DUX4-FL co-transfected with U6.milacZ as negative control reactions. In the other reactions, mir-675 reduced the relative Renilla luciferase activity by 24±3% (P<0.0001, ANOVA, N=3), 28±2% (P<0.0001, ANOVA, N=3) and 33±3% (P<0.0001, ANOVA, N=3) at a molarity ratio U6.mir-675: RenLuc-DUX4-FL (n:n) of 10 to 1, 20 to 1 and 40 to 1, respectively. All readings were normalized to the U6.milacZ (negative control). Six replicate data were averaged per experiment and individual experiments were performed in triplicate (N=3). Results were reported as the average relative Renilla luciferase activity±SEM for all combined experiments. […] A representative western blot gel and the quantification results of three independent western blot replicates (N=3) performed on 15 μg of total protein extracts collected from HEK293 cells 24 hours after co-transfection with the AAV.CMV.DUX4-FL and the U6.mir-675 or the human long non-coding H19 expression plasmid (CMV.H19) is shown here. […]"}, "[2]": {"system": "mir-675R (reverse complementary sequence of mir-675-5p)", "assay": "Dual-luciferase assay with mir-675 perfect target site (mir-675R) as Renilla 3'UTR", "format": "cell-based, human", "conditions": "mir-675R perfect target site; normalized to milacZ", "source_text": "The QPCR was done using the Taqman probes designed to recognize the mature sequence of mir-675-5p and -3p. mir-675-3p expression was 2.20±0.15-fold higher than that of mir-675-5p (P<0.0001, ANOVA, N=3). Gene expression was normalized to the housekeeping gene RPL13A. Results were reported as the average relative gene expression±SEM of three replicates (N=3). […] The miRNA (pmoles) was used at 40-fold of the RenLuc-DUX4-FL (pmoles). When testing the U6.mir-675-3p construct, the relative Renilla luciferase kept on average 95% (P<0.2, ANOVA) of its activity, even though U6.mir-675-3p expressed high levels of mir-675-3p relative to the negative control mir-675-5p levels. On the other hand, U6.mir-675-5p was able to reduce the relative Renilla luciferase activity on average by 33±3% (P<0.0001, ANOVA, N=3). All readings were normalized to the milacZ negative control. Results were reported as the average relative Renilla luciferase activity±SEM of three replicates (N=3). […] This sequence was cloned as a 3′UTR downstream the Renilla luciferase gene. […] All readings were normalized to the milacZ negative control. […]\nDual Luciferase Assay. […] Luciferase activity was measured 24h or 48h after transfection. DUX4 gene silencing was determined as previously described [Wallace et al., Mol. Ther. Methods Clin. Dev. […]"}}}
{"molecule": "B1", "values": [{"measurement": "reduction of relative Renilla luciferase activity", "setting": "[1]; miRNA:RenLuc-DUX4-FL molar ratio 10 to 1, 48 h, normalized to U6.milacZ", "result": "24±3", "unit": "%"}, {"measurement": "reduction of relative Renilla luciferase activity", "setting": "[1]; miRNA:RenLuc-DUX4-FL molar ratio 20 to 1, 48 h, normalized to U6.milacZ", "result": "28±2", "unit": "%"}, {"measurement": "reduction of relative Renilla luciferase activity", "setting": "[1]; miRNA:RenLuc-DUX4-FL molar ratio 40 to 1, normalized to milacZ", "result": "33±3", "unit": "%"}, {"measurement": "reduction of relative Renilla luciferase activity (maximum inhibition)", "setting": "[2]", "result": "41±12", "unit": "%"}]}
